Ends that are not written are not given here.
What was measured:
[1] = target: T1, ApoC3 peptide … G41P (human); assay: peptide microarray
T1 sequence (peptide, cyclic constrained): ARPWVTDGFSSLK

[2] = target: T2, ApoC3 peptide … G41T (human); assay: peptide microarray
T2 sequence (peptide, cyclic constrained): ARTWVTDGFSSLK

[3] = target: T3, ApoC3 peptide … V43Q (human); assay: peptide microarray
T3 sequence (peptide, cyclic constrained): ARGWQTDGFSSLK

[4] = target: T4, ApoC3 peptide … D45T (human); assay: peptide microarray
T4 sequence (peptide, cyclic constrained): ARGWVTTGFSSLK

[5] = target: T5, ApoC3 peptide … V43T (human); assay: peptide microarray
T5 sequence (peptide, cyclic constrained): ARGWTTDGFSSLK

ApoC3 peptide E70H = target: T6, ApoC3 peptide E70H (human, cyclic (thioether)); assay: cyclic peptide substitution array
T6 peptide: DKFSEFWDLDPHV
How it was run: (§1)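 Peptide microarrays incubated with antibody samples, then stained with goat anti-human IgG (Fc) DyLight680 and anti-HA DyLight800 control antibodies, scanned at intensity 7/7 (red/green). Secondary-only pre-stain checked background binding; framing HA peptides served as quality control; substitution effects read as changes in spot intensity.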

ApoC3 peptide V71F = target: T7, ApoC3 peptide V71F (human, thioether (positions not given here); also: cyclic (thioether), ring places not given here); assay: cyclic peptide substitution array
T7 peptide: DKFSEFWDLDPEF
How it was run: as §1

ApoC3 peptide F61Y = target: T8, ApoC3 peptide F61Y (human, cyclic (thioether)); assay: cyclic peptide substitution array
T8 peptide: DKYSEFWDLDPEV
How it was run: as §1

ApoC3 peptide S62H = target: T9, ApoC3 peptide S62H (human, thioether (positions not given here); also: cyclic (thioether), ring places not given here); assay: cyclic peptide substitution array
T9 peptide: DKFHEFWDLDPEV
How it was run: as §1

ApoC3 peptide W65C = target: T10, ApoC3 peptide W65C (human, not fully specified; cyclic (thioether)); assay: cyclic peptide substitution array
T10 peptide: DKFSEFCDLDPEV
How it was run: as §1

ApoC3 peptide E63L = target: T11, ApoC3 peptide E63L (human, cyclic (thioether)); assay: cyclic peptide substitution array
T11 peptide: DKFSLFWDLDPEV
How it was run: as §1

[6] = target: T12, wild-type ApoC3 peptide DKFSEFWDLDPEV (human, cyclic (thioether)); assay: cyclic peptide substitution array
T12 construct: 13 aa cyclic constrained peptide
T12 peptide: DKFSEFWDLDPEV
How it was run: as §1

ApoC3 peptide P69R = target: T13, ApoC3 peptide P69R (human, not fully specified; cyclic (thioether)); assay: cyclic peptide substitution array
T13 peptide: DKFSEFWDLDREV
How it was run: as §1

ApoC3 peptide K60D = target: T14, ApoC3 peptide K60D (human, thioether (positions not given here); not fully specified (bridges); also: cyclic (thioether), positions not given here); assay: cyclic peptide substitution array
T14 peptide: DDFSEFWDLDPEV
How it was run: as §1

ApoC3 peptide L67A [7] = target: T15, ApoC3 peptide L67A (human, not fully specified; cyclic (thioether)); assay: cyclic peptide substitution array
T15 peptide: DKFSEFWDADPEV
How it was run: as §1

ApoC3 peptide E63C [8] = target: T16, ApoC3 peptide E63C (human, not fully specified; cyclic (thioether)); assay: cyclic peptide substitution array
T16 peptide: DKFSCFWDLDPEV
How it was run: as §1

ApoC3 peptide E63R = target: T17, ApoC3 peptide E63R (human, cyclic (thioether)); assay: cyclic peptide substitution array
T17 peptide: DKFSRFWDLDPEV
How it was run: as §1

ApoC3 peptide P69G = target: T18, ApoC3 peptide P69G (human, not fully specified; cyclic (thioether)); assay: cyclic peptide substitution array
T18 peptide: DKFSEFWDLDGEV
How it was run: as §1

ApoC3 peptide V71L = target: T19, ApoC3 peptide V71L (human, thioether (positions not given here); also: cyclic (thioether), ring places not given here); assay: cyclic peptide substitution array
T19 peptide: DKFSEFWDLDPEL
How it was run: as §1

ApoC3 peptide W65G = target: T20, ApoC3 peptide W65G (human, not fully specified; cyclic (thioether)); assay: cyclic peptide substitution array
T20 peptide: DKFSEFGDLDPEV
How it was run: as §1

ApoC3 peptide L67Y = target: T21, ApoC3 peptide L67Y (human, thioether (positions not given here); not fully specified (bridges); also: thioether between a C-terminal Cys side chain and a modified N-terminus, the Cys is not in the chain); assay: cyclic peptide substitution array
T21 peptide: DKFSEFWDYDPEV
How it was run: as §1

ApoC3 peptide W65D = target: T22, ApoC3 peptide W65D (human, not fully specified; cyclic (thioether)); assay: cyclic peptide substitution array
T22 peptide: DKFSEFDDLDPEV
How it was run: as §1

ApoC3 peptide V71W = target: T23, ApoC3 peptide V71W (human, not fully specified; cyclic (thioether)); assay: cyclic peptide substitution array
T23 peptide: DKFSEFWDLDPEW
How it was run: as §1

ApoC3 peptide V71A = target: T24, ApoC3 peptide V71A (human, thioether (positions not given here); also: cyclic (thioether), ring places not given here); assay: cyclic peptide substitution array
T24 peptide: DKFSEFWDLDPEA
How it was run: as §1

ApoC3 peptide W65M = target: T25, ApoC3 peptide W65M (human, cyclic (thioether)); assay: cyclic peptide substitution array
T25 peptide: DKFSEFMDLDPEV
How it was run: as §1

ApoC3 peptide F64T = target: T26, ApoC3 peptide F64T (human, thioether (positions not given here); not fully specified (bridges); also: cyclic (thioether), positions not given here); assay: cyclic peptide substitution array
T26 peptide: DKFSETWDLDPEV
How it was run: as §1

ApoC3 peptide … F61I = target: T27, ApoC3 peptide … F61I (human, cyclic constrained); assay: cyclic peptide substitution array
T27 peptide: DKISEFWDLDPEV

ApoC3 peptide … E63W = ApoC3 peptide … E63W (human, cyclic constrained); assay: cyclic peptide substitution array
ApoC3 peptide … L67N = target: T28, ApoC3 peptide … L67N (human, not fully specified (bridges); also: cyclic constrained); assay: cyclic peptide substitution array
T28 peptide: DKFSEFWDNDPEV

ApoC3 peptide L67E = target: T29, ApoC3 peptide L67E (human, thioether (positions not given here); not fully specified (bridges); also: thioether between a C-terminal Cys side chain and a modified N-terminus, the Cys is not in the chain); assay: peptide microarray
T29 peptide: DKFSEFWDEDPEV

ApoC3 peptide S62F = target: T30, ApoC3 peptide S62F (human, not fully specified; cyclic (thioether)); assay: peptide microarray
T30 peptide: DKFFEFWDLDPEV

ApoC3 peptide L67A [9] = target: T15, ApoC3 peptide L67A; assay: peptide microarray
ApoC3 peptide E63C [10] = target: T16, ApoC3 peptide E63C; assay: peptide microarray
ApoC3 peptide E63Y = target: T31, ApoC3 peptide E63Y (human, cyclic (thioether)); assay: peptide microarray
T31 peptide: DKFSYFWDLDPEV

B1: anti-ApoC3 antibody 14C7 (antibody, V domains shown)
VH: QVQVQESGPGLVKPSQTLSLTCTVSGGSITTNSYYWSWIRQPPGKGLEWMGAIDYSGDTYYSPSLKSRTSISRDTSKNQFTLQLTSVTPEDTAVYYCVSRIPTGEYWGQGTQVTVSS
VL: QTVVTQEPSLSVSPGGTVTLTCGLNSGSVTSSNYPDWYQQTPGQAPRLLIYNTNSRHSGVPSRFSGSISGNKAALTITGAQPEDEADYYCALYMGSDSVVFGGGTHLTVL
notes: it was detected with goat anti-human IgG (Fc); also called mAb 14C7; llama antibody 14C7
**Q.** How did the % of binding to wild-type peptide [1] turn out when B1 was run?
**A.** 8.7%

**Q.** And the % of binding to wild-type peptide [2]?
**A.** 9.44%

**Q.** What about the % of binding to wild-type peptide [3] of the same binder?
**A.** 7.49%

**Q.** And the % of binding to wild-type peptide [4]?
**A.** 8.67%

**Q.** What about the % of binding to wild-type peptide [5] of the same binder?
**A.** 9.94%

B2: Llama antibody 5E5 (antibody, V domains shown)
VH: QLQLVESGGGLVQPGGSLRLSCAASGFTFGTYSMRWVRQVPRKALEWVSSISTDGGGTAYRDSVKGRFTISRDNAKNTLYLQMNNLKPEDTAIYYCVIAGYSDWGQGTQVTVSS
VL: ATMLTQSPGSLSVVPGESASISCKTSQGLVHSDGKTYFYWFLQKPGQSPQQLIYQVSNRASGVPDRFTGSGSGTDFTLKISGVKAEDAGVYYCAQGTYYPHTFGSGTRLEIK
notes: detected with goat anti-human IgG (Fc); also called mAb 5E5
**Q.** With B2 as the binder, how does the “% of binding to wild-type peptide” value (ApoC3 peptide E70H) read?
**A.** 50.5%

**Q.** And the “% of binding to wild-type peptide” value (ApoC3 peptide V71F)?
**A.** 81.4%

**Q.** And the “% of binding to wild-type peptide” value (ApoC3 peptide F61Y)?
**A.** 126%

**Q.** And the “% of binding to wild-type peptide” value (ApoC3 peptide S62H)?
**A.** 2.89%

**Q.** What about the “% of binding to wild-type peptide” value (ApoC3 peptide W65C) of the same binder?
**A.** 0.08%

**Q.** What about the “% of binding to wild-type peptide” value (ApoC3 peptide E63L) of the same binder?
**A.** 10.1%

**Q.** And the “% of binding to wild-type peptide” value [6]?
**A.** 100%

**Q.** What about the “% of binding to wild-type peptide” value (ApoC3 peptide P69R) of the same binder?
**A.** 20.1%

**Q.** What about the “% of binding to wild-type peptide” value (ApoC3 peptide K60D) of the same binder?
**A.** 200%

**Q.** And the “% of binding to wild-type peptide” value (ApoC3 peptide L67A [7])?
**A.** 21%

**Q.** What about the “% of binding to wild-type peptide” value (ApoC3 peptide E63C [8]) of the same binder?
**A.** 2.3%

**Q.** What about the “% of binding to wild-type peptide” value (ApoC3 peptide E63R) of the same binder?
**A.** 2.19%

**Q.** And the “% of binding to wild-type peptide” value (ApoC3 peptide P69G)?
**A.** 24.6%

**Q.** What about the “% of binding to wild-type peptide” value (ApoC3 peptide V71L) of the same binder?
**A.** 90.6%

**Q.** And the “% of binding to wild-type peptide” value (ApoC3 peptide W65G)?
**A.** 0%

**Q.** What about the “% of binding to wild-type peptide” value (ApoC3 peptide L67Y) of the same binder?
**A.** 0.02%

**Q.** And the “% of binding to wild-type peptide” value (ApoC3 peptide W65D)?
**A.** 0%

**Q.** What about the “% of binding to wild-type peptide” value (ApoC3 peptide V71W) of the same binder?
**A.** 68.7%

**Q.** What about the “% of binding to wild-type peptide” value (ApoC3 peptide V71A) of the same binder?
**A.** 66.3%

**Q.** And the “% of binding to wild-type peptide” value (ApoC3 peptide W65M)?
**A.** 0%

**Q.** What about the “% of binding to wild-type peptide” value (ApoC3 peptide F64T) of the same binder?
**A.** 467%

**Q.** And the % of binding to wild-type peptide (ApoC3 peptide … F61I)?
**A.** 7.59%

**Q.** And the % of binding to wild-type peptide (ApoC3 peptide … E63W)?
**A.** 9.57%

**Q.** And the % of binding to wild-type peptide (ApoC3 peptide … L67N)?
**A.** 9.84%

B3: anti-ApoC3 antibody 6A6 (antibody, V domains shown)
VH: EVQLVESGGGLVQPGGSLRLSCAASGFTFSSYAGRWVRQVPGKGLEWVSSINAGGGSTSYADSVKGRFTISRDNAKNTLYLQMNSLKPEDTAKYYCTQNSYRYWGQGTRVAVSS
VL: DVVLTQTPGSLSVVPGESASISCKASQSLIHTDGKTYLYWLLQKPGQRPQLLIYQVSSHESGVPDRFTGSGSGTDFTLKISGVKAEDAGVYYCAQATYNPRTFGQGTKLEIK
notes: it was detected with goat anti-human IgG (Fc); also called mAb 6A6; llama antibody 6A6
**Q.** What does the source list for B3?
**A.** % of binding to wild-type peptide (ApoC3 peptide L67E): 8.52%; % of binding to wild-type peptide (ApoC3 peptide S62F): 9.54%; % of binding to wild-type peptide (ApoC3 peptide L67A [9]): 9.07%; % of binding to wild-type peptide (ApoC3 peptide E63C [10]): 7.93%; % of binding to wild-type peptide (ApoC3 peptide E63Y): 8.92%

— patent US20190241648A1 (STATEN BIOTECHNOLOGY B V, published 2019)
